Values quoted from earlier work, collected in article PMC8359934.

Biological target: sNUCB1 (Homo sapiens) (UniProt Q02818)
Assay: SEC-MALS

sNUCB1 (from UniProt Q02818)
Kd: 260 nM
